Reference: the supplement of paper PMC7125110
± gives the standard error. This sample holds only a part of the variants without activity.

B1: glmS ribozyme (parent)
chain: AUAAAAGCGCCAGAACUACAGAAAUGUAGUUGACGAGGAGGAGGUUUAUCGAAUUUUCGGCGGAUGCCUCCAAA

Columns and labels:
Details in all cases: with glucosamine-6-phosphate
glucosamine-6-phosphate [1] = variants of: B1; assay: self-cleavage kobs at 40 uM GlcN6P; higher = faster cleavage; RNA array
Summary of the method: (§1)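 The measurements used barcoded ribozyme variants on sequenced MiSeq chips, transcribed in situ by E. coli RNA polymerase and tracked at 37 °C with a hybridised Cy3 probe. Glucosamine-6-phosphate, 40 μM to 10 mM in HEPES/KCl/Mg(OAc)2 buffer, was flowed in while tiles were imaged over ~14 h. Baseline-normalised signals, also normalised to non-cleaving reference variants, gave per-tile medians that were fit to one- or two-exponential decays for kobs. kcat and KM resulted from weighted Michaelis–Menten fits across concentrations.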

glucosamine-6-phosphate [2] = variants of: B1; assay: self-cleavage kobs at 640 uM GlcN6P; higher = faster cleavage; RNA array
Summary of the method: as §1

glucosamine-6-phosphate [3] = variants of: B1; assay: self-cleavage kobs at 2500 uM GlcN6P; higher = faster cleavage; RNA array
Summary of the method: as §1

glucosamine-6-phosphate [4] = variants of: B1; assay: self-cleavage kobs at 10000 uM GlcN6P; higher = faster cleavage; RNA array
Summary of the method: as §1

glucosamine-6-phosphate [5] = variants of: B1; assay: self-cleavage kobs at 160 uM GlcN6P; higher = faster cleavage; RNA array
Summary of the method: as §1

Variant | self-cleavage kobs at 40 uM GlcN6P (glucosamine-6-phosphate [1]) | self-cleavage kobs at 640 uM GlcN6P (glucosamine-6-phosphate [2]) | self-cleavage kobs at 2500 uM GlcN6P (glucosamine-6-phosphate [3]) | self-cleavage kobs at 10000 uM GlcN6P (glucosamine-6-phosphate [4]) | self-cleavage kobs at 160 uM GlcN6P (glucosamine-6-phosphate [5])
G9C U49A | < 1e-05 s⁻¹ | < 1e-05 s⁻¹ | < 1e-05 s⁻¹ | < 1e-05 s⁻¹ | –
G9U C16U G43U A53U | < 1e-05 s⁻¹ | – | – | < 1e-05 s⁻¹ | –
C10A A15U | < 1e-05 s⁻¹ | < 1e-05 s⁻¹ | – | – | –
G9C G51C | < 1e-05 s⁻¹ | < 1e-05 s⁻¹ | < 1e-05 s⁻¹ | < 1e-05 s⁻¹ | < 1e-05 s⁻¹
C11G G13A | < 1e-05 s⁻¹ | – | – | < 1e-05 s⁻¹ | < 1e-05 s⁻¹
G9U A12U C70U | < 1e-05 s⁻¹ | – | – | – | –
C10U A33G | < 1e-05 s⁻¹ | < 1e-05 s⁻¹ | – | < 1e-05 s⁻¹ | < 1e-05 s⁻¹
C10A G38C G60U C71U | < 1e-05 s⁻¹ | – | – | – | –
C10A A36C | < 1e-05 s⁻¹ | < 1e-05 s⁻¹ | < 1e-05 s⁻¹ | < 1e-05 s⁻¹ | –
C11A A14U G66U C67A | < 1e-05 s⁻¹ | – | – | – | –
C10U G60U | < 1e-05 s⁻¹ | < 1e-05 s⁻¹ | – | < 1e-05 s⁻¹ | < 1e-05 s⁻¹
C10U G13A A39U G60U | < 1e-05 s⁻¹ | – | – | – | –
C10U C58G | < 1e-05 s⁻¹ | – | < 1e-05 s⁻¹ | < 1e-05 s⁻¹ | < 1e-05 s⁻¹
C10U C16G G35C A42U U57G G59A | < 1e-05 s⁻¹ | – | – | – | –
C10G U46G | < 1e-05 s⁻¹ | < 1e-05 s⁻¹ | < 1e-05 s⁻¹ | – | < 1e-05 s⁻¹
C11A A33G G43U G44A U54C | < 1e-05 s⁻¹ | < 1e-05 s⁻¹ | – | < 1e-05 s⁻¹ | –
C10G C16U U49C | < 1e-05 s⁻¹ | < 1e-05 s⁻¹ | – | – | –
C10U A15C G43U C50U U57G G59A | < 1e-05 s⁻¹ | < 1e-05 s⁻¹ | < 1e-05 s⁻¹ | < 1e-05 s⁻¹ | < 1e-05 s⁻¹
C10U G43U U57G | < 1e-05 s⁻¹ | – | – | < 1e-05 s⁻¹ | –
C10A G29A C67G | 0.000103 ± 3.7e-05 s⁻¹ | – | – | 0.000102 ± 3e-05 s⁻¹ | –
C10A G38U | < 1e-05 s⁻¹ | < 1e-05 s⁻¹ | – | – | < 1e-05 s⁻¹
C10U C34A C50G U65A | 8.28e-05 ± 3e-05 s⁻¹ | – | 6.81e-05 ± 2.9e-05 s⁻¹ | 0.000129 ± 2.8e-05 s⁻¹ | –
C10A A33C | < 1e-05 s⁻¹ | < 1e-05 s⁻¹ | < 1e-05 s⁻¹ | < 1e-05 s⁻¹ | < 1e-05 s⁻¹
G9A G51A | < 1e-05 s⁻¹ | – | – | < 1e-05 s⁻¹ | –

Variant | self-cleavage kobs at 40 uM GlcN6P (glucosamine-6-phosphate [1]) | self-cleavage kobs at 640 uM GlcN6P (glucosamine-6-phosphate [2]) | self-cleavage kobs at 2500 uM GlcN6P (glucosamine-6-phosphate [3]) | self-cleavage kobs at 10000 uM GlcN6P (glucosamine-6-phosphate [4]) | self-cleavage kobs at 160 uM GlcN6P (glucosamine-6-phosphate [5])
G9C G59C | < 1e-05 s⁻¹ | < 1e-05 s⁻¹ | < 1e-05 s⁻¹ | < 1e-05 s⁻¹ | < 1e-05 s⁻¹
C11A C61A C67A | 0.000153 ± 4.5e-05 s⁻¹ | – | – | 7.62e-05 ± 2.5e-05 s⁻¹ | –
G9C G32C | < 1e-05 s⁻¹ | < 1e-05 s⁻¹ | < 1e-05 s⁻¹ | < 1e-05 s⁻¹ | < 1e-05 s⁻¹
C11G A36C U55C | < 1e-05 s⁻¹ | < 1e-05 s⁻¹ | – | – | –
C10A G43U | < 1e-05 s⁻¹ | – | – | < 1e-05 s⁻¹ | < 1e-05 s⁻¹
C10A G43A | < 1e-05 s⁻¹ | – | – | – | –
C10A G37C C68U | < 1e-05 s⁻¹ | – | – | – | –
C11A A39C G62C A64U C67G | < 1e-05 s⁻¹ | – | – | – | –
C10G U65G | < 1e-05 s⁻¹ | < 1e-05 s⁻¹ | < 1e-05 s⁻¹ | < 1e-05 s⁻¹ | < 1e-05 s⁻¹
C10G U65A | < 1e-05 s⁻¹ | < 1e-05 s⁻¹ | – | < 1e-05 s⁻¹ | –
C10U C61U | < 1e-05 s⁻¹ | < 1e-05 s⁻¹ | – | < 1e-05 s⁻¹ | –
C10U G37A G44A U57C | < 1e-05 s⁻¹ | – | – | – | –
C10U G29U U56G | < 1e-05 s⁻¹ | – | – | < 1e-05 s⁻¹ | –
C10A U46G U47G C50G C58G C68U | 0.000116 ± 2.2e-05 s⁻¹ | – | – | 0.000242 ± 4.3e-05 s⁻¹ | –
G9A U55G | < 1e-05 s⁻¹ | – | – | – | < 1e-05 s⁻¹
C10A G41C | < 1e-05 s⁻¹ | < 1e-05 s⁻¹ | < 1e-05 s⁻¹ | < 1e-05 s⁻¹ | < 1e-05 s⁻¹
C11G G40A U45G | < 1e-05 s⁻¹ | < 1e-05 s⁻¹ | < 1e-05 s⁻¹ | < 1e-05 s⁻¹ | –
C10A A39U U49C | < 1e-05 s⁻¹ | – | – | < 1e-05 s⁻¹ | –
G9U C11A A36G | < 1e-05 s⁻¹ | – | – | – | –
C10G U30C A33C U55A | < 1e-05 s⁻¹ | – | – | < 1e-05 s⁻¹ | –
C11G A53U | < 1e-05 s⁻¹ | – | – | – | –
G9C C16U U47G C61U | < 1e-05 s⁻¹ | – | – | < 1e-05 s⁻¹ | –
C10A G32A G51A | < 1e-05 s⁻¹ | – | – | – | –
C10A G41C A48C C58G | < 1e-05 s⁻¹ | – | – | – | –
